The Immune Epitope Database (IEDB)

How the values were obtained:
HLA-A*02:01 = test: IEDB peptide-MHC binding, purified MHC/competitive/fluorescence; filed as Kd, often an IC50 or EC50 that approximates it; ≥ and ≤ were set here for values at or beyond the usual limits of such assays; details: source organism: Toxoplasma gondii
HLA-A*02:12 = test: as above; details: source organism: Toxoplasma gondii
HLA-B*18:01 = test: IEDB peptide-MHC binding, purified MHC/competitive/radioactivity; filed as Kd, often an IC50 or EC50 that approximates it; ≥ and ≤ were set here for values at or beyond the usual limits of such assays
HLA-B*40:01 = test: as above
HLA-B*44:03 = test: as above
HLA-B*45:01 = test: as above
HLA-B*40:02 = test: as above
HLA-B*44:02 = test: as above
HLA-B*15:01 = test: as above; details: source organism: Vaccinia virus WR
HLA-B*15:03 = test: as above
HLA-A*32:01 = test: as above; details: source organism: Vaccinia virus WR
HLA-A*30:01 = test: as above; details: source organism: Vaccinia virus WR
HLA-B*08:01 = test: as above
HLA-B*48:01 = test: IEDB peptide-MHC binding, purified MHC/direct/fluorescence; filed as Kd, often an IC50 or EC50 that approximates it; ≥ and ≤ were set here for values at or beyond the usual limits of such assays
HLA-B*27:05 = test: as above; details: source organism: West Nile virus
[1] = source organism: Mammarenavirus guanaritoense
[2] = source organism: Vaccinia virus WR
[3] = source organism: Lymphocytic choriomeningitis virus (strain Armstrong)
[4] = source organism: Mammarenavirus machupoense
[5] = source organism: SARS coronavirus Tor2

Sequence NLMVNEQAA has a Kd (HLA-A*02:01) of no less than 20000 nM and a Kd (HLA-A*02:12) of 18.9 nM.
In the case of PEFDWILGW, the Kd (HLA-B*18:01; [1]) is reported as 5120 nM, the Kd (HLA-B*40:01; [1]) is reported as no less than 76100 nM and the Kd (HLA-B*44:03; [1]) is reported as 27.4 nM. For the same sequence, the Kd (HLA-B*45:01; [1]) was no less than 77700 nM, the Kd (HLA-B*40:02; [1]) was no less than 22000 nM and the Kd (HLA-B*44:02; [1]) was 212 nM.
QIVAYFSEF was tested, and the Kd (HLA-B*15:01) was 1.38 nM, the Kd (HLA-B*15:03; [2]) was 7.85 nM and the Kd (HLA-A*32:01) was 70.4 nM. For the same sequence, the Kd (HLA-A*30:01) was 12700 nM and the Kd (HLA-B*08:01; [2]) was 1930 nM.
With RDLVISDSS the Kd (HLA-B*18:01; [1]) was no less than 77500 nM, the Kd (HLA-B*40:01; [1]) was no less than 53400 nM and the Kd (HLA-B*44:03; [1]) was no less than 35800 nM. It also gave a Kd (HLA-B*45:01; [1]) of no less than 77700 nM, a Kd (HLA-B*40:02; [1]) of 2490 nM and a Kd (HLA-B*44:02; [1]) of no less than 77900 nM.
Work on REPVDQKQF yielded a Kd (HLA-B*18:01; [3]) of no less than 47600 nM, a Kd (HLA-B*40:01; [3]) of no less than 40500 nM and a Kd (HLA-B*44:03; [3]) of 7920 nM. The Kd (HLA-B*45:01; [3]) was no less than 77700 nM, the Kd (HLA-B*40:02; [3]) was 11900 nM and the Kd (HLA-B*44:02; [3]) was 1630 nM.
RREKRSVAL was tested, and the Kd (HLA-B*08:01; source organism: Dengue virus 2 Jamaica/1409/1983) was 40.9 nM and the Kd (HLA-B*48:01; source organism: Dengue virus) was 842 nM.
SEILKTLGF was tested, and the Kd (HLA-B*18:01; [4]) was 655 nM, the Kd (HLA-B*40:01; [4]) was 1000 nM and the Kd (HLA-B*44:03; [4]) was 14.1 nM. The Kd (HLA-B*45:01; [4]) was 1610 nM, the Kd (HLA-B*40:02; [4]) was 165 nM and the Kd (HLA-B*44:02; [4]) was 4.21 nM.
SEMVMCGGSL showed a Kd (HLA-B*18:01; [5]) of 355 nM, a Kd (HLA-B*40:01; [5]) of 0.475 nM and a Kd (HLA-B*44:03; [5]) of 12.3 nM. It also gave a Kd (HLA-B*45:01; [5]) of 16.3 nM, a Kd (HLA-B*40:02; [5]) of 1020 nM and a Kd (HLA-B*44:02; [5]) of 2.24 nM.
Work on SLNECIISF yielded a Kd (HLA-B*15:03; [2]) of 66.9 nM.
SMVQILSSL showed a Kd (HLA-B*15:03; source organism: Vaccinia virus Copenhagen) of no less than 77200 nM.
Work on TERLKLFAA yielded a Kd (HLA-B*18:01; [5]) of 301 nM, a Kd (HLA-B*40:01; [5]) of 19200 nM and a Kd (HLA-B*44:03; [5]) of no less than 41200 nM. The Kd (HLA-B*45:01; [5]) was 4.73 nM, the Kd (HLA-B*40:02; [5]) was 24 nM and the Kd (HLA-B*44:02; [5]) was no less than 65800 nM.
Work on TMKERRPIL yielded a Kd (HLA-B*15:01) of 808 nM, a Kd (HLA-B*15:03; [2]) of 397 nM and a Kd (HLA-A*32:01) of 2210 nM. For the same sequence, the Kd (HLA-A*30:01) was 4730 nM and the Kd (HLA-B*08:01; [2]) was 1.83 nM.
VELVAEMDG was tested, and the Kd (HLA-B*18:01; [5]) was no less than 28300 nM, the Kd (HLA-B*40:01; [5]) was no less than 76200 nM and the Kd (HLA-B*44:03; [5]) was no less than 24500 nM. It also gave a Kd (HLA-B*45:01; [5]) of no less than 29400 nM, a Kd (HLA-B*40:02; [5]) of no less than 77300 nM and a Kd (HLA-B*44:02; [5]) of 10600 nM.
Work on VEYPIIGDEL yielded a Kd (HLA-B*18:01; [5]) of 15200 nM, a Kd (HLA-B*40:01; [5]) of 5.04 nM and a Kd (HLA-B*44:03; [5]) of 282 nM. The Kd (HLA-B*45:01; [5]) was 2230 nM, the Kd (HLA-B*40:02; [5]) was 500 nM and the Kd (HLA-B*44:02; [5]) was 4810 nM.
Work on VLFEVFVVF yielded a Kd (HLA-B*15:01) of 2.85 nM, a Kd (HLA-B*15:03; [2]) of 4.85 nM and a Kd (HLA-A*32:01) of 7.8 nM. The Kd (HLA-A*30:01) was no less than 24400 nM and the Kd (HLA-B*08:01; [2]) was 5110 nM.
Sequence VQTIVFIWF has a Kd (HLA-B*15:03; source organism: Vaccinia virus) of 306 nM.
Work on WEIQQVVDA yielded a Kd (HLA-B*18:01; [5]) of 4920 nM, a Kd (HLA-B*40:01; [5]) of 1030 nM and a Kd (HLA-B*44:03; [5]) of 9040 nM. It also gave a Kd (HLA-B*45:01; [5]) of 135 nM, a Kd (HLA-B*40:02; [5]) of 54.3 nM and a Kd (HLA-B*44:02; [5]) of no less than 30300 nM.
In the case of WSIYLSLHY, the Kd (HLA-B*15:01) is reported as 48.2 nM, the Kd (HLA-B*15:03; [2]) is reported as 8.85 nM and the Kd (HLA-A*32:01) is reported as no less than 29000 nM. The Kd (HLA-A*30:01) was 17000 nM and the Kd (HLA-B*08:01; [2]) was 2720 nM.
Work on YQSLSPPPF yielded a Kd (HLA-B*15:01) of 5050 nM, a Kd (HLA-B*15:03; [2]) of 0.0611 nM and a Kd (HLA-A*32:01) of 4740 nM. The Kd (HLA-A*30:01) was 0.503 nM and the Kd (HLA-B*08:01; [2]) was no less than 33400 nM.
For YRLRGEERK, the Kd (HLA-B*27:05) was 883 nM and the Kd (HLA-B*48:01; source organism: West Nile virus) was no less than 20000 nM.
